The target in the test is p110δ+p85α nicSH2 complex (human | , UniProt O00329 1-1044; P27986 322-724). Kind of test: cell-based or functional assay.

Non-standard residues stand in square brackets, D forms with d. No end group written: not given here. pY = N[C@@H](Cc1ccc(OP(=O)(O)O)cc1)C(=O)O

p110δ+p85α nicSH2 complex, sequence (O00329 whole entry, stated change not applied, chain 1 of 2): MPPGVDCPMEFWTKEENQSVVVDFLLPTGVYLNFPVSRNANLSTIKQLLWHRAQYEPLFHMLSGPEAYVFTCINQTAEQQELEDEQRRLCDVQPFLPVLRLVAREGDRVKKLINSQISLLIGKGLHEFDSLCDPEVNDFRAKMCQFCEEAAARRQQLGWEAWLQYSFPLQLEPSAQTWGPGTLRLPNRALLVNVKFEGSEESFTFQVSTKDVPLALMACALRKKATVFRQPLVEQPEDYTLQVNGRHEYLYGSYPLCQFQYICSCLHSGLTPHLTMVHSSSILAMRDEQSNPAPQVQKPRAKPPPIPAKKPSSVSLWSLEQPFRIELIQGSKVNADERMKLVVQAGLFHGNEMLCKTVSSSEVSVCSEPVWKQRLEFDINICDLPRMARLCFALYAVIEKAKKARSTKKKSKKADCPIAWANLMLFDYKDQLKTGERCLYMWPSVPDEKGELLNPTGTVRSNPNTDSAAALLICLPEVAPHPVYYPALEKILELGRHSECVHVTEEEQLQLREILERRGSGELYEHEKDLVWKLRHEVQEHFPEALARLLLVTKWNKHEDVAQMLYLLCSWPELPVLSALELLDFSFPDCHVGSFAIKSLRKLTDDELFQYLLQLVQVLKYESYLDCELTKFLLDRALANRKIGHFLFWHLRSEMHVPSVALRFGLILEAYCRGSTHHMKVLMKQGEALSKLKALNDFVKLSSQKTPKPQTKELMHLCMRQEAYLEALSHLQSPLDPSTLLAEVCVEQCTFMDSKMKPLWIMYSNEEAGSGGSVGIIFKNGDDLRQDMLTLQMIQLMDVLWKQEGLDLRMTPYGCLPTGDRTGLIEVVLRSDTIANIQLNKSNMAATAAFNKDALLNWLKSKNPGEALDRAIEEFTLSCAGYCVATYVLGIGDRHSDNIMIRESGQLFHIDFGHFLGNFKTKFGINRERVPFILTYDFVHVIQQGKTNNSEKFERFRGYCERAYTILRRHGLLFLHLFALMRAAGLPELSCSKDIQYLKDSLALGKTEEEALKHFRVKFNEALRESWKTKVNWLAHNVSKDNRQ
p110δ+p85α nicSH2 complex, sequence (P27986 322-724, stated change not applied, chain 2 of 2): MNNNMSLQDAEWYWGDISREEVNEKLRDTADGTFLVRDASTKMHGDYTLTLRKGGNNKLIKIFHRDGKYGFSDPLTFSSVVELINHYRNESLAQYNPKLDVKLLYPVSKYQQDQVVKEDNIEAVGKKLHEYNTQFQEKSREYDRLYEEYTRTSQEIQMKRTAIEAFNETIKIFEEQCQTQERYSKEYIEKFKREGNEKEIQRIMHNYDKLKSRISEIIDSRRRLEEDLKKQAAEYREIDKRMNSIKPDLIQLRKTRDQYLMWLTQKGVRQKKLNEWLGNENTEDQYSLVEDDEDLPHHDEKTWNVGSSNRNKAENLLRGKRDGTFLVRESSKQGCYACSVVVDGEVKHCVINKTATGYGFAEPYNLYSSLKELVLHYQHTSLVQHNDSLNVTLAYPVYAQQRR

Regarding ESDGG[pY]MDMSKDESID[pY]VPMLDMKGDIKYADIE [PDGFR bis-phosphorylated pY peptide (residues 735–767, with pY740 and pY751)], the “activation of the lipid kinase activity of p110δ+nicSH2 by 10 μM PDGFR pY” value is approximately 13 fold.

The values are drawn from article PMC3155019, “Dynamics of the Phosphoinositide 3-Kinase p110δ Interaction with p85α and Membranes Reveals Aspects of Regulation Distinct from p110α” (Structure(London, England:1993), 2011).
